Measurements as given in publication PMC9543379, “Dihydroxy‐Acid Dehydratases From Pathogenic Bacteria: Emerging Drug Targets to Combat Antibiotic Resistance” (Chemistry (Weinheim an Der Bergstrasse, Germany), 2022).

Experiments:
CC(C)(O)C(O)C(=O)O [1] = test system: T1, CC(C)(O)C(O)C(=O)O; test: Michaelis-Menten kinetics (Km), DNPH assay; type: biochemical, Campylobacter jejuni; settings: [4Fe-4S] cluster, Mg2+ active site
T1 construct: hexa-histidine tag at the N-terminal, pET-28a

CC(C)(O)C(O)C(=O)O [2] = test system: T1, CC(C)(O)C(O)C(=O)O; test: Michaelis-Menten kinetics (Km), DNPH assay; type: biochemical, Staphylococcus aureus; settings: [4Fe-4S] cluster, Mg2+ active site

Substance	Km (CC(C)(O)C(O)C(=O)O [1])	kcat (CC(C)(O)C(O)C(=O)O [1])	kcat/Km (CC(C)(O)C(O)C(=O)O [1])	Km (CC(C)(O)C(O)C(=O)O [2])	kcat (CC(C)(O)C(O)C(=O)O [2])	kcat/Km (CC(C)(O)C(O)C(=O)O [2])
CjDHAD (dihydroxy-acid dehydratase) (Campylobacter jejuni subsp. jejuni NCTC 11168 = ATCC 700819)	820 µM	6.5 s⁻¹	7930 M⁻¹ s⁻¹			
SaDHAD (dihydroxy-acid dehydratase) (Staphylococcus aureus subsp. aureus NCTC 8325)				1100 µM	2.1 s⁻¹	1910 M⁻¹ s⁻¹
